The target in this experiment is human C4b binding protein (C4BP) (human) (UniProt P04003). Put plainly: BLI; Octet RED96; purified C4BP immobilised on amine-reactive (AR2G) sensor; P5 loop peptides 1.25-50 µM in PBS; 30°C; 1:1 binding fit. On the technique in general: BLI is a label-free optical method that tracks binding on a fibre tip over time.
Sequence of UniProt P04003 (P04003 49-597, chain 1 of 2): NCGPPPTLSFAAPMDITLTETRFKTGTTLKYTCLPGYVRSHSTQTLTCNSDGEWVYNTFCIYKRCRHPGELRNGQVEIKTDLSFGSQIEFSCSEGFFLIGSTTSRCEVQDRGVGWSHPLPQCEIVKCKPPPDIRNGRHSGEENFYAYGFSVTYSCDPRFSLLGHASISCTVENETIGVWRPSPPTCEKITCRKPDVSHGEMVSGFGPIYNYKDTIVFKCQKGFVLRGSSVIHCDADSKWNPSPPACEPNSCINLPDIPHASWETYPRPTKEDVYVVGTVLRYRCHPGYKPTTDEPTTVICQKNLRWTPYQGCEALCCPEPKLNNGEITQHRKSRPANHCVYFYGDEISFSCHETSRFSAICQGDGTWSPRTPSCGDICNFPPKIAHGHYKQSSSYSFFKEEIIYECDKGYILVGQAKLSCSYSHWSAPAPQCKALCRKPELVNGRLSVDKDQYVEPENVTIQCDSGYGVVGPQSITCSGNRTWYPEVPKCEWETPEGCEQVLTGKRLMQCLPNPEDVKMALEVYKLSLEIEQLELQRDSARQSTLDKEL
Sequence of UniProt P04003 (P20851 18-252, chain 2 of 2, further chain): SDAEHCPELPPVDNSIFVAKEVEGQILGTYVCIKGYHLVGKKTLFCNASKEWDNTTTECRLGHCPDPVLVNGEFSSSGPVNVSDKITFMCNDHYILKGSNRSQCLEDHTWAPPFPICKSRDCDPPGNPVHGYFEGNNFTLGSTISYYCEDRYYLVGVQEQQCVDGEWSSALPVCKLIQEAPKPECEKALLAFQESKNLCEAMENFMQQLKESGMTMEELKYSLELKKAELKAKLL

One may read the Kd as the concentration at which binding is half-saturated. The low end stands for higher affinity, the high end for lower affinity. “synthetic peptide of outer surface loop 2 of P5 from NTHi 3655”: the equilibrium dissociation constant (Kd) was 10 µM.

“synthetic peptide of outer surface loop 2 of P5 from NTHi KR271” returned an equilibrium dissociation constant (Kd) of 73 µM. Against the preceding substance, the Kd is about 7.3-fold higher.

For the origin of these results see publication PMC8428749.
